Laboratory results taken from publication PMC2615049.

Columns and labels:
[1] = biological target: Bovine cationic trypsin (bovine); test: equilibrium titration with spectrophotometric assay of residual free trypsin
[2] = biological target: Bovine cationic trypsin (bovine); test: ITC

Kd [1] [nM] | dH (enthalpy of dissociation, ΔHd, at 25 °C, HEPES buffer) [2] [kcal/mol] | Substance
0.17 | – | C14S BPTI variant (natural protein)
– | 10.6 | C14S/C38S BPTI variant (natural protein)
